Results as given in publication PMC11319201.

Biological target: STAG2^R370Q–RAD21 complex (UniProt Q8N3U4)
Assay: ITC; MicroCal iTC 200, 25 °C; 20 mM Tris pH 7.7, 150 mM NaCl, 0.5 mM TCEP; 300 μl of 50 μM STAG2–RAD21 in the cell, 500 μM CTCF peptide injected as 16 x 2.5 μl; one-site binding model

Chain of STAG2^R370Q–RAD21 complex (Q8N3U4 whole entry R370Q, chain 1 of 2): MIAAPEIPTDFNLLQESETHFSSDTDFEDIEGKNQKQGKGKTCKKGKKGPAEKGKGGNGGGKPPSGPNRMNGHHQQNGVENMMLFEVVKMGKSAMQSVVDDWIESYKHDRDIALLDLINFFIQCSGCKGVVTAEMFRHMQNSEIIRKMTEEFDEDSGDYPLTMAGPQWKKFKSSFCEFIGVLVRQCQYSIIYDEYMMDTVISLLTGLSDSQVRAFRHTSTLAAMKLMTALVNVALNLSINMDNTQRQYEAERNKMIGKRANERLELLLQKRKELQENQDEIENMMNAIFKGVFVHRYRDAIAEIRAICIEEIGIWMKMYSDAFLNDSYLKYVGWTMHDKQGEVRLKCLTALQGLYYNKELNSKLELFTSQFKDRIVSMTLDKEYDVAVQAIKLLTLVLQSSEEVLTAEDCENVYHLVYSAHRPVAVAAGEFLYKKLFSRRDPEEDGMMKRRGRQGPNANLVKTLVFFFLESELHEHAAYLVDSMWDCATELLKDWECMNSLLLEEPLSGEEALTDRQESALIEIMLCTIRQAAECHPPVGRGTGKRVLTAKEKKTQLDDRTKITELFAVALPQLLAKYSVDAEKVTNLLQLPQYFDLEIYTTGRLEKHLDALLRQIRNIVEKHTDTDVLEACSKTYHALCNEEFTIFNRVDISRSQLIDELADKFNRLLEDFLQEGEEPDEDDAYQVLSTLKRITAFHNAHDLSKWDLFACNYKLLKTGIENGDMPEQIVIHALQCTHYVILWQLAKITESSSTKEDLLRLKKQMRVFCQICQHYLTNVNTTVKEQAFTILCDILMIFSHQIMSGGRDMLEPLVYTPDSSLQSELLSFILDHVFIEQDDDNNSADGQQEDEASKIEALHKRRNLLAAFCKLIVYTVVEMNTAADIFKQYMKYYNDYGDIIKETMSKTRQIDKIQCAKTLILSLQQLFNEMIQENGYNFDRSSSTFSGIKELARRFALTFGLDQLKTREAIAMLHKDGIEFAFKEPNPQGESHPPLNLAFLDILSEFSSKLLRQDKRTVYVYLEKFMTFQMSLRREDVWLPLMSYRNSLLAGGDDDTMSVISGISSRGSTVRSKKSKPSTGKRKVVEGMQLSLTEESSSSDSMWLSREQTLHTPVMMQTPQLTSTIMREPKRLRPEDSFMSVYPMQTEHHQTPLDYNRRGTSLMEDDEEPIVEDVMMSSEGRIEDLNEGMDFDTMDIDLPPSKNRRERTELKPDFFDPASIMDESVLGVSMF
Chain of STAG2^R370Q–RAD21 complex (O60216 whole entry, chain 2 of 2, further chain): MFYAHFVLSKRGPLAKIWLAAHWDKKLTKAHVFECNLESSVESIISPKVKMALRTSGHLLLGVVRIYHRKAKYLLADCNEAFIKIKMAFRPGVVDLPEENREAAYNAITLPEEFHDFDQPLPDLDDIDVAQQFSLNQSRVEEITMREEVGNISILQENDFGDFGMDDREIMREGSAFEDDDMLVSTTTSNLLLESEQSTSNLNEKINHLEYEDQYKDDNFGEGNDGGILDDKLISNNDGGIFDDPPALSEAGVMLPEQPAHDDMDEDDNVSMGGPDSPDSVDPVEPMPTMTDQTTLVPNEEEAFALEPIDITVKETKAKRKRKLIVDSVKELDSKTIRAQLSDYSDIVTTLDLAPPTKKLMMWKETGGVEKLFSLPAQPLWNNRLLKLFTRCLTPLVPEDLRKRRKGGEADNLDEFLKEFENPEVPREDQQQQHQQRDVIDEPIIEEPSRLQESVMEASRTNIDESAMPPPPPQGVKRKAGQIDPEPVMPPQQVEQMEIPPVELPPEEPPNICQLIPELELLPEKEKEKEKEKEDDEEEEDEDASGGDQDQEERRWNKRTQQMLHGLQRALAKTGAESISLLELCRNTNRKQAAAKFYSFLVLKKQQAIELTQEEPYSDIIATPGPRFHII

- fold lower affinity than WT: 10 fold
Substance: CTCF peptide
